Experimental data taken from US11319374B2, “Inhibitors of prototypic galectin dimerization and uses thereof” (INSTITUT NATIONAL DE LA RECHERCHE SCIENTIFIQUE, priority 2015, dated 2022).

Columns and labels:
[1] = target: T1, hGal-7 homodimer (Homo sapiens, UniProt P47929); experiment: hGal-7 homodimer disruption, low-SDS native gel electrophoresis / Western blotting; type: biochemical; details: recombinant hGal-7 0.5 μM
T1 construct: made in house; host or cells: E. coli BL21 (DE3)
Procedure: Production of recombinant hGal-7 and hGal-1. Human Gal-7 cDNA was cloned into pET-22b(+) using Ndel and HindIII restriction enzymes. Human pET-Gal-1 vector was generously donated by Dr. S. Sato (McGill University, QC, Canada). The proteins were produced in E. coli BL21 (DE3) cells at 37° C. Isopropyl p-D-1-thiogalactopyranoside (IPTG) (1 mM) was added to the bacterial culture at OD600nm=0.6-0.7 and then incubated for 4 h at 37° C. to allow protein production. Bacterial pellets were resuspended in lysis buffer (0.7 mg/mL lysozyme, 10 mM Tris pH 8, 100 mM NaCl, 1 mM EDTA, 1 mM DTT and a protease inhibitor cocktail) and then incubated for 1 h at 37° C. prior to centrifugation for 30 min at 15,000×g (4° C.). The supernatant was then filtered with 500 mL bottle top filter ([…]) (Corning®, New York, N.Y., USA) and then ran through a lactose-agarose column (Sigma®, St. Louis, Mo., USA). The protein was eluted in 1 mL fractions with 150 mM lactose solution. Purified fractions were analyzed by SDS-PAGE. The hGal-7 was then concentrated and purified using Centrifugal filter units (Amicon® Ultra-15, 10K) (EMD®, Etobicoke, ON) in 20 mM potassium phosphate at pH 7.1. All subsequent experiments with the recombinant proteins were performed in the same buffer solution unless mentioned otherwise. Brilliant Coomassie blue was purchased from BioRad® (Bio-Rad Laboratories®, Mississauga, ON, Canada). The recombinant human Bcl-2 protein fragment was purchased from Abcam® (Abcam®, Cambridge, UK, Cat #ab73696).
Western blotting. For the apoptosis tests, whole-cell extracts were homogenized and resuspended in RIPA buffer (Thermo Fisher Scientific®, Rockford, Ill., USA) containing protease inhibitors (Roche®, Laval, QC, Canada). Equal amounts of whole-cell extracts (25 μg) were separated on SDS-PAGE and transferred onto nitrocellulose membranes (Bio-Rad Laboratories®). The membranes were first blocked with 5% milk [w/v] in TBS/0.5% Tween® 20 [v/v] for 1 h at room temperature and subsequently blotted overnight in a solution of TBS containing 3% BSA [w/v] and 0.5% Tween 20 [v/v]. The following antibodies were used: a rabbit anti-Poly-(ADP-ribose) polymerase (PARP)-1 (p25) polyclonal antibody (1:5000; Epitomics®, Burlingame, Calif., USA) and a mouse anti-β-actin (1:10000; Sigma-Aldrich®, St-Louis, Mo., USA). Secondary antibodies consisted of horseradish peroxidase-conjugated donkey anti-rabbit (GE Healthcare®, Buckinghamshire, England) and sheep anti-mouse (GE Healthcare®) IgG. Detection was performed using the enhanced chemiluminescence method (GE Healthcare®). For the recombinant protein tests, each peptide was dissolved and maintained in 20 mM potassium phosphate at pH 7.1. The recombinant proteins and peptide dilutions were pre-incubated for 1 h at 4° C. prior to gel migration. The native polyacrylamide gel was made without SDS to allow molecular weight differentiation between the dimer and monomer. The following antibodies were used: a goat anti-Gal-7 antibody (1:10000; R&D Systems®, Minneapolis, Minn., USA), a mouse anti-Gal-1 antibody (1:10000; Proteintech®, Chicago, Ill., USA) and a rabbit anti-Bcl-2 antibody (1:1000; Abeam®, Cambridge, UK). Secondary antibodies consisted of donkey anti-goat (R&D Systems®) or sheep anti-mouse and sheep anti-rabbit (GE Healthcare®) IgG. Detection was performed as described above.
To determine whether these peptides could inhibit the formation of the hGal-7 homodimer, recombinant hGal-7 (0.5 μM) was incubated with increasing concentrations of hGal-7(13-25), hGal-7(85-102), hGal-7(95-108) or hGal 7(129-135) and the formation of homodimers was measured. To measure the ability of the peptides to disrupt the formation of hGal-7 dimers, a mild denaturing (low SDS) native gel electrophoresis, a commonly used approach to visualize monomer-dimer equilibrium, was used (FIG. 1A and FIG. 6).

[2] = system: Jurkat T cells; experiment: FITC-labeled hGal-7 binding on Jurkat T cells, flow cytometry; type: cell-based; details: FITC-labeled hGal-7 0.1 μM pre-incubated with peptide, FIG. 4
Procedure: FITC conjugation and hGal-7 binding assay. To assess hGal-7 binding onto Jurkat T cells, 5 μL of a 1.25 mg/mL fluorescein isothiocyanate (FITC)/DMSO solution was added to 300 μL of 1.7 μg/μL recombinant hGal-7 in a 0.1 M NaHCO3 pH 9.2 solution and incubated for 1 h at room temperature on a roller. FITC-labeled hGal-7 was then purified using a PD-10 Sepharose® column (GE healthcare) and eluted with PBS containing 0.01% [v/v] sodium azide. FITC-labeled hGal-7 (0.1 μM) was then pre-incubated with hGal-7(129-135) (or related peptides) in 20 mM potassium phosphate buffer pH 7.1 for 1 h at 4° C. Jurkat cells (5×10^5 cells per sample) were harvested in PBS-0.01% [v/v] sodium azide and incubated for 30 min on ice with the FITC-labeled hGal-7 with and without peptides. Cells were then washed with PBS-0.01% [v/v] sodium azide and resuspended in 400 μL of the same buffer and analyzed on a FACSCalibur® (BD Biosciences®).
It was thus tested whether hGal-7(129-135) could modulate the binding of hGal-7 on Jurkat T cells, a cell model that is commonly used to test the pro-apoptotic activity of galectins. For this purpose, recombinant hGal-7 was labeled with fluorescein isothiocyante (FITC) and its binding on the surface of Jurkat T cells was measured by flow cytometry in absence or presence of increasing concentrations of hGal-7(129-135). […]

[3] = 20 mM potassium phosphate pH 7.1, FIG. 2A

T1 sequence (P47929 2-136 limits assumed): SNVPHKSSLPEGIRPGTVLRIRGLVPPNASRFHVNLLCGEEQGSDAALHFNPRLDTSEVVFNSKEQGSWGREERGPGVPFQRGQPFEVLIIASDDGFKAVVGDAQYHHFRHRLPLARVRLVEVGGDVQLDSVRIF

## H-Leu-Asp-Ser-Val-Arg-Ile-Phe-NH2 (H-LDSVRIF-NH2; listed as Homo sapiens) [hGal-7(129-135), peptide corresponding to residues 129-135 of hGal-7]
[1]; 0.1 mM lactose solution, FIG. 2D
  disruption of hGal-7 homodimers in the presence of lactose: not inhibited by the presence of lactose
[1]; [3]
  concentration at which consistent decrease of hGal-7 homodimers starts: 10 µM
  saturation dose for decrease of hGal-7 homodimers: 100 µM
[2]
  fluorescent intensity of Jurkat T cells due to FITC-labeled hGal-7 binding: increased the fluorescent intensity of Jurkat T cells in a concentration-dependent manner
